{
  "source": "patent US20190142971A1",
  "about": "“FORMULATION AND DELIVERY OF MODIFIED NUCLEOSIDE, NUCLEOTIDE, AND NUCLEIC ACID COMPOSITIONS” (ModernaTX, Inc., priority 2013, published 2019)",
  "molecules": {"B1": {"name": "G-CSF: modified mRNA encoding human G-CSF, SEQ ID NO: 4, Cap1, fully modified with 5-methylcytosine and pseudouridine; LNP-formulated in Examples 16-22 (nucleic acid)", "chain": "GGGAAAUAAGAGAGAAAAGAAGAGUAAGAAGAAAUAUAAGAGCCACCAUGGCCGGUCCCGCGACCCAAAGCCCCAUGAAACUUAUGGCCCUGCAGUUGCUGCUUUGGCACUCGGCCCUCUGGACAGUCCAAGAAGCGACUCCUCUCGGACCUGCCUCAUCGUUGCCGCAGUCAUUCCUUUUGAAGUGUCUGGAGCAGGUGCGAAAGAUUCAGGGCGAUGGAGCCGCACUCCAAGAGAAGCUCUGCGCGACAUACAAACUUUGCCAUCCCGAGGAGCUCGUACUGCUCGGGCACAGCUUGGGGAUUCCCUGGGCUCCUCUCUCGUCCUGUCCGUCGCAGGCUUUGCAGUUGGCAGGGUGCCUUUCCCAGCUCCACUCCGGUUUGUUCUUGUAUCAGGGACUGCUGCAAGCCCUUGAGGGAAUCUCGCCAGAAUUGGGCCCGACGCUGGACACGUUGCAGCUCGACGUGGCGGAUUUCGCAACAACCAUCUGGCAGCAGAUGGAGGAACUGGGGAUGGCACCCGCGCUGCAGCCCACGCAGGGGGCAAUGCCGGCCUUUGCGUCCGCGUUUCAGCGCAGGGCGGGUGGAGUCCUCGUAGCGAGCCACCUUCAAUCAUUUUUGGAAGUCUCGUACCGGGUGCUGAGACAUCUUGCGCAGCCGUGAAGCGCUGCCUUCUGCGGGGCUUGCCUUCUGGCCAUGCCCUUCUUCUCUCCCUUGCACCUGUACCUCUUGGUCUUUGAAUAAAGCCUGAGUAGGAAG", "modifications": "Cap1, 5-methylcytosine, pseudouridine"}},
  "format_in_all_cases": "in vivo",
  "key": {"[1]": {"test_system": "non-human primates (cynomolgus monkey)", "assay": "Example 21: LNP IV in non-human primates, serum EPO/G-CSF ELISA (Table 37)", "conditions": "for Average Serum Concentration / Female NHP Serum Concentration / Male NHP Serum Concentration: 0.05 mg/kg IV", "method": "Formulations, listed in Table 33, were characterized by particle size, zeta potential, and encapsulation.\nLNP formulations, shown in Table 33 (above), were administered to non-human primates (NHP) (cynomolgus monkey) (n=2) as a bolus intravenous injection (IV) over approximately 30 seconds using a hypodermic needle, which may be attached to a syringe/abbocath or butterfly if needed. The NHP were administered a single modified mRNA IV dose of 0.05 mg/kg of EPO or G-CSF or 0.005 mg/kg of EPO in a dose volume of 0.5 mL/kg. The NHPs were bled 5-6 days before dosing with the modified mRNA LNP formulations to determine protein expression in the serum and a baseline complete blood count. After administration with the modified mRNA formulation the NHP were bled at 8, 24, 48 and 72 hours to determined protein expression. At 24 and 72 hours after administration the complete blood count of the NHP was also determined. Protein expression of G-CSF and EPO was determined by ELISA. Urine from the NHPs was collected over the course of the entire experiment and analyzed to evaluate clinical safety. Samples were collected from the NHPs after they were administered with G-CSF or EPO modified mRNA formulations to determine protein expression using ELISA. Clinical chemistry, hematology, urinalysis and cytokines of the non-human primates were also analyzed."}, "[2]": {"test_system": "non-human primates (cynomolgus monkey)", "assay": "Example 22: LNP IV in non-human primates, serum G-CSF/EPO ELISA (Tables 38, 39)", "method": "LNP formulations, shown in Table 33 (above), were administered to non-human primates (NHP) (cynomolgus monkey) (n=2) as intravenous injection (IV). The NHP were administered a single modified mRNA IV dose of 0.5 mg/kg, 0.05 mg/kg or 0.005 mg/kg of G-CSF or EPO in a dose volume of 0.5 mL/kg. The NHPs were bled before dosing with the modified mRNA LNP formulations to determine protein expression in the serum and a baseline complete blood count. After administration with the G-CSF modified mRNA formulation the NHP were bled at 8, 24, 48 and 72 hours to determined protein expression. After administration with the EPO modified mRNA formulation the NHP were bled at 8, 24, 48, 72 hours and 7 days to determined protein expression.\nSamples collected from the NHPs after they were administered with G-CSF or EPO modified mRNA formulations were analyzed by ELISA to determine protein expression. Neutrophil and reticulocyte count was also determined pre-dose, 24 hours, 3 days, 7 days, 14 days and 18 days after administration of the modified G-CSF or EPO formulation."}, "[3]": {"test_system": "mice", "assay": "Example 42A: G-CSF/EPO mRNA in buffer IM in mice, serum protein at 13 hours (Table 67)", "conditions": "G-CSF group: human G-CSF in mouse serum, IM 100 ug", "method": "The mice were bled at 13 hours after the injection to determine the concentration of the human polypeptide in serum in pg/mL (G-CSF groups measured human G-CSF in mouse serum and EPO groups measured human EPO in mouse serum)."}, "[4]": {"test_system": "mice", "assay": "Example 65: G-CSF/EPO mRNA in saline in mice, serum protein at 13 hours (Table 97)", "conditions": "G-CSF group; 100 ug, 100 μl/mouse, F. buffer, 13 hours after injection", "method": "The mice were bled at 13 hours after the injection to determine the concentration of the human polypeptide in serum in pg/mL. (G-CSF groups measured human G-CSF in mouse serum and EPO groups measured human EPO in mouse serum)."}},
  "data": [
    {"molecule": "B1", "values": [
      {"measurement": "Average Serum Concentration", "setting": "[1]; 8 hours", "value": "2,506 pg/ml"},
      {"measurement": "Female NHP Serum Concentration", "setting": "[1]; 8 hours", "value": 3289, "unit": "pg/mL"},
      {"measurement": "Male NHP Serum Concentration", "setting": "[1]; 8 hours", "value": 1722, "unit": "pg/mL"},
      {"measurement": "Average Serum Concentration", "setting": "[1]; 24 hours", "value": 515, "unit": "pg/mL"},
      {"measurement": "Female NHP Serum Concentration", "setting": "[1]; 24 hours", "value": 722, "unit": "pg/mL"},
      {"measurement": "Male NHP Serum Concentration", "setting": "[1]; 24 hours", "value": 307, "unit": "pg/mL"},
      {"measurement": "Average Serum Concentration", "setting": "[1]; 48 hours", "value": 0, "unit": "pg/mL"},
      {"measurement": "Female NHP Serum Concentration", "setting": "[1]; 48 hours", "value": 0, "unit": "pg/mL"},
      {"measurement": "Male NHP Serum Concentration", "setting": "[1]; 48 hours", "value": 0, "unit": "pg/mL"},
      {"measurement": "Average Serum Concentration", "setting": "[1]; 72 hours", "value": 0, "unit": "pg/mL"},
      {"measurement": "Female NHP Serum Concentration", "setting": "[1]; 72 hours", "value": 0, "unit": "pg/mL"},
      {"measurement": "Male NHP Serum Concentration", "setting": "[1]; 72 hours", "value": 0, "unit": "pg/mL"},
      {"measurement": "Average Serum Concentration", "setting": "[1]; Pre-bleed", "value": 0, "unit": "pg/mL"},
      {"measurement": "Female NHP Serum Concentration", "setting": "[1]; Pre-bleed", "value": 0, "unit": "pg/mL"},
      {"measurement": "Male NHP Serum Concentration", "setting": "[1]; Pre-bleed", "value": 0, "unit": "pg/mL"},
      {"measurement": "protein expression detectable out to", "setting": "[1]; NHP IV, 0.05 mg/kg", "value": 24, "unit": "h"},
      {"measurement": "Female NHP Serum G-CSF / EPO Concentration", "setting": "[2]; 0.005 mg/kg IV, 8 hours", "value": 559, "unit": "pg/mL"},
      {"measurement": "Male NHP Serum G-CSF / EPO Concentration", "setting": "[2]; 0.005 mg/kg IV, 8 hours", "value": 700, "unit": "pg/mL"},
      {"measurement": "Female NHP Serum G-CSF / EPO Concentration", "setting": "[2]; 0.005 mg/kg IV, 24 hours", "value": 155, "unit": "pg/mL"},
      {"measurement": "Male NHP Serum G-CSF / EPO Concentration", "setting": "[2]; 0.005 mg/kg IV, 24 hours", "value": "<39", "unit": "pg/mL"},
      {"measurement": "Female NHP Serum G-CSF / EPO Concentration", "setting": "[2]; 0.005 mg/kg IV, 48 hours", "value": "<39", "unit": "pg/mL"},
      {"measurement": "Male NHP Serum G-CSF / EPO Concentration", "setting": "[2]; 0.005 mg/kg IV, 48 hours", "value": "<39", "unit": "pg/mL"},
      {"measurement": "Female NHP Serum G-CSF / EPO Concentration", "setting": "[2]; 0.005 mg/kg IV, 72 hours", "value": "<39", "unit": "pg/mL"},
      {"measurement": "Male NHP Serum G-CSF / EPO Concentration", "setting": "[2]; 0.005 mg/kg IV, 72 hours", "value": "<39", "unit": "pg/mL"},
      {"measurement": "Female NHP Serum G-CSF / EPO Concentration", "setting": "[2]; 0.005 mg/kg IV, Pre-bleed", "value": "<39", "unit": "pg/mL"},
      {"measurement": "Male NHP Serum G-CSF / EPO Concentration", "setting": "[2]; 0.005 mg/kg IV, Pre-bleed", "value": "<39", "unit": "pg/mL"},
      {"measurement": "Female NHP Serum G-CSF / EPO Concentration", "setting": "[2]; 0.05 mg/kg IV, 8 hours", "value": "3,289 pg/ml"},
      {"measurement": "Male NHP Serum G-CSF / EPO Concentration", "setting": "[2]; 0.05 mg/kg IV, 8 hours", "value": "1,722 pg/ml"},
      {"measurement": "Female NHP Serum G-CSF / EPO Concentration", "setting": "[2]; 0.05 mg/kg IV, 24 hours", "value": 722, "unit": "pg/mL"},
      {"measurement": "Male NHP Serum G-CSF / EPO Concentration", "setting": "[2]; 0.05 mg/kg IV, 24 hours", "value": 307, "unit": "pg/mL"},
      {"measurement": "Female NHP Serum G-CSF / EPO Concentration", "setting": "[2]; 0.05 mg/kg IV, 48 hours", "value": "<39", "unit": "pg/mL"},
      {"measurement": "Male NHP Serum G-CSF / EPO Concentration", "setting": "[2]; 0.05 mg/kg IV, 48 hours", "value": "<39", "unit": "pg/mL"},
      {"measurement": "Female NHP Serum G-CSF / EPO Concentration", "setting": "[2]; 0.05 mg/kg IV, 72 hours", "value": "<39", "unit": "pg/mL"},
      {"measurement": "Male NHP Serum G-CSF / EPO Concentration", "setting": "[2]; 0.05 mg/kg IV, 72 hours", "value": "<39", "unit": "pg/mL"},
      {"measurement": "Female NHP Serum G-CSF / EPO Concentration", "setting": "[2]; 0.05 mg/kg IV, Pre-bleed", "value": "<39", "unit": "pg/mL"},
      {"measurement": "Male NHP Serum G-CSF / EPO Concentration", "setting": "[2]; 0.05 mg/kg IV, Pre-bleed", "value": "<39", "unit": "pg/mL"},
      {"measurement": "Female NHP Serum G-CSF / EPO Concentration", "setting": "[2]; 0.5 mg/kg IV, 8 hours", "value": "43,525 pg/ml"},
      {"measurement": "Male NHP Serum G-CSF / EPO Concentration", "setting": "[2]; 0.5 mg/kg IV, 8 hours", "value": "43,594 pg/ml"},
      {"measurement": "Female NHP Serum G-CSF / EPO Concentration", "setting": "[2]; 0.5 mg/kg IV, 24 hours", "value": "11,374 pg/ml"},
      {"measurement": "Male NHP Serum G-CSF / EPO Concentration", "setting": "[2]; 0.5 mg/kg IV, 24 hours", "value": "3,628 pg/ml"},
      {"measurement": "Female NHP Serum G-CSF / EPO Concentration", "setting": "[2]; 0.5 mg/kg IV, 48 hours", "value": "1,100 pg/ml"},
      {"measurement": "Male NHP Serum G-CSF / EPO Concentration", "setting": "[2]; 0.5 mg/kg IV, 48 hours", "value": 833, "unit": "pg/mL"},
      {"measurement": "Female NHP Serum G-CSF / EPO Concentration", "setting": "[2]; 0.5 mg/kg IV, 72 hours", "value": "<39", "unit": "pg/mL"},
      {"measurement": "Male NHP Serum G-CSF / EPO Concentration", "setting": "[2]; 0.5 mg/kg IV, 72 hours", "value": 306, "unit": "pg/mL"},
      {"measurement": "Female NHP Serum G-CSF / EPO Concentration", "setting": "[2]; 0.5 mg/kg IV, Pre-bleed", "value": "<39", "unit": "pg/mL"},
      {"measurement": "Male NHP Serum G-CSF / EPO Concentration", "setting": "[2]; 0.5 mg/kg IV, Pre-bleed", "value": "<39", "unit": "pg/mL"},
      {"measurement": "protein expression not detected beyond", "setting": "[2]; NHP IV", "value": "≤ 72", "unit": "h"},
      {"measurement": "Average Protein Product, serum", "setting": "[3]", "value": 19.8, "unit": "pg/mL"},
      {"measurement": "Average Protein Product, serum (human G-CSF)", "setting": "[4]", "value": 45, "unit": "pg/mL"}
    ]}
  ]
}
